The values that follow are results of earlier work, collected in article PMC10454195.

The target of this data set is GLP-1 receptor (Homo sapiens) (UniProt P43220).
Chain of UniProt P43220 (P43220 24-463): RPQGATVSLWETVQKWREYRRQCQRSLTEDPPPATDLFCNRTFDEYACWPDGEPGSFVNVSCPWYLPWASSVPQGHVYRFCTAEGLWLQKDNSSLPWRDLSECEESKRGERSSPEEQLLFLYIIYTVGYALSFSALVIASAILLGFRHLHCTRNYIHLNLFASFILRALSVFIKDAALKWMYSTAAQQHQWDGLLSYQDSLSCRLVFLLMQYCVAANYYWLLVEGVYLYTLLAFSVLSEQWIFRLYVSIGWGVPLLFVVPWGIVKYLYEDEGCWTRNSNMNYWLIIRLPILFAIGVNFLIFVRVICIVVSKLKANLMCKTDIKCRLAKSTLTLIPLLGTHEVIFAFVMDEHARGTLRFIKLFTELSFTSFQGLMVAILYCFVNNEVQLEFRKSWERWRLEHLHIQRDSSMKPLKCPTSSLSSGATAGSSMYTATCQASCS

Chain of GLP-1 (P01275 98-127): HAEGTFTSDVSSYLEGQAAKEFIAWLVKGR

By Kd is commonly meant the concentration at which binding is half-saturated. Take GLP-1 (from UniProt P01275): the Kd was 5 nM.
